Our source for the kcat, Km and kcat/Km values is ChEMBL document CHEMBL1137660, “Molecular and biochemical characterization of the chromosome-encoded class A beta-lactamase BCL-1 from Bacillus clausii” (Antimicrob Agents Chemother, 2007).

Substrate in data set [1]: CC(=O)OCC1=C(C(=O)O)N2C(=O)[C@@H](NC(=O)CCC[C@@H](N)C(=O)O)[C@H]2SC1
In words: (§1) Activity of Bacillus cereus beta-lactamase BcI.

Substrate in data set [2]: CC1(C)S[C@@H]2[C@H](NC(=O)Cc3ccccc3)C(=O)N2[C@H]1C(=O)O
Described as §1.

Substrate in data set [3]: CC(C)(O/N=C(\C(=O)N[C@@H]1C(=O)N2C(C(=O)[O-])=C(C[n+]3ccccc3)CS[C@H]12)c1csc(N)n1)C(=O)O
In words: (§2) Activity of Bacillus anthracis beta-lactamase Bla1.

Substrate in data set [4]: CO/N=C(\C(=O)N[C@@H]1C(=O)N2C(C(=O)O)=C(COC(C)=O)CS[C@H]12)c1csc(N)n1
The description is as §2.

Substrate in data set [5]: CO/N=C(\C(=O)N[C@@H]1C(=O)N2C(C(=O)[O-])=C(C[N+]3(C)CCCC3)CS[C@H]12)c1csc(N)n1
The data set is described as §2.

Substrate in data set [6]: O=C(Cc1cccs1)N[C@@H]1C(=O)N2C(C(=O)[O-])=C(C[n+]3ccccc3)CS[C@H]12
As to the kind of experiment: Ratio of Kcat to Km for Bacillus anthracis beta-lactamase Bla1.

Substrate in data set [7]: CC(=O)OCC1=C(C(=O)O)N2C(=O)[C@@H](NC(=O)Cc3cccs3)[C@H]2SC1
As to conditions: Shouchella clausii; NR.

Substrate in data set [8]: CC(C)(O/N=C(\C(=O)N[C@@H]1C(=O)N2C(C(=O)[O-])=C(C[n+]3ccccc3)CS[C@H]12)c1csc(N)n1)C(=O)O
The following applies: Shouchella clausii; NR.

Substrate in data set [9]: CC1(C)S[C@@H]2[C@H](NC(=O)Cc3ccccc3)C(=O)N2[C@H]1C(=O)O
As to conditions: Shouchella clausii; NR.

Substrate in data set [10]: CC1(C)S[C@@H]2[C@H](NC(=O)[C@H](C(=O)O)c3ccsc3)C(=O)N2[C@H]1C(=O)O
The following applies: Shouchella clausii; NR.

Substrate in data set [11]: CC1(C)S[C@@H]2[C@H](NC(=O)[C@H](N)c3ccc(O)cc3)C(=O)N2[C@H]1C(=O)O
The following applies: Shouchella clausii; NR.

Substrate in data set [12]: CCN1CCN(C(=O)N[C@@H](C(=O)N[C@@H]2C(=O)N3[C@@H]2SC(C)(C)[C@@H]3C(=O)O)c2ccccc2)C(=O)C1=O
As to conditions: Shouchella clausii; NR.

Substrate in data set [13]: CO/N=C(\C(=O)N[C@@H]1C(=O)N2C(C(=O)O)=C(COC(C)=O)CS[C@H]12)c1csc(N)n1
The following applies: Shouchella clausii; NR.

Substrate in data set [14]: CO/N=C(\C(=O)N[C@@H]1C(=O)N2C(C(=O)O)=C(COC(N)=O)CS[C@H]12)c1ccco1
The following applies: Shouchella clausii; NR.

Substrate in data set [15]: CO/N=C(\C(=O)N[C@@H]1C(=O)N2C(C(=O)O)=C(CSc3nc(=O)c(O)nn3C)CS[C@H]12)c1csc(N)n1
As to conditions: Shouchella clausii; NR.

Substrate in data set [16]: CO/N=C(\C(=O)N[C@@H]1C(=O)N2C(C(=O)[O-])=C(C[N+]3(C)CCCC3)CS[C@H]12)c1csc(N)n1
The following applies: Shouchella clausii; NR.

Substrate in data set [17]: CO/N=C(\C(=O)N[C@@H]1C(=O)N2C(C(=O)[O-])=C(C[n+]3cccc4c3CCC4)CS[C@H]12)c1csc(N)n1
The following applies: Shouchella clausii; NR.

Substrate in data set [18]: CO[C@@]1(NC(=O)C(C(=O)O)c2ccc(O)cc2)C(=O)N2C(C(=O)O)=C(CSc3nnnn3C)CO[C@@H]21
As to conditions: Shouchella clausii; NR.

Substrate in data set [19]: CO[C@@]1(NC(=O)Cc2cccs2)C(=O)N2C(C(=O)O)=C(COC(N)=O)CS[C@@H]21
As to conditions: Shouchella clausii; NR.

Substrate in data set [20]: C[C@H]1[C@H](NC(=O)/C(=N\OC(C)(C)C(=O)O)c2csc(N)n2)C(=O)N1S(=O)(=O)O
As to conditions: Shouchella clausii; NR.

Substrate in data set [21]: O=C(Cc1cccs1)N[C@@H]1C(=O)N2C(C(=O)[O-])=C(C[n+]3ccccc3)CS[C@H]12
The following applies: Shouchella clausii; NR.

Substrate in data set [22]: CC(=O)OCC1=C(C(=O)O)N2C(=O)[C@@H](NC(=O)Cc3cccs3)[C@H]2SC1
The following applies: Shouchella clausii; NR. This is another data set of the same source.

Substrate in data set [23]: CC(C)(O/N=C(\C(=O)N[C@@H]1C(=O)N2C(C(=O)[O-])=C(C[n+]3ccccc3)CS[C@H]12)c1csc(N)n1)C(=O)O
As to conditions: Shouchella clausii; NR. The source holds these as a separate data set.

Substrate in data set [24]: CC1(C)S[C@@H]2[C@H](NC(=O)Cc3ccccc3)C(=O)N2[C@H]1C(=O)O
As to conditions: Shouchella clausii; NR. This is another data set of the same source.

Substrate in data set [25]: CC1(C)S[C@@H]2[C@H](NC(=O)[C@H](C(=O)O)c3ccsc3)C(=O)N2[C@H]1C(=O)O
The following applies: Shouchella clausii; NR. The source holds these as a separate data set.

Substrate in data set [26]: CC1(C)S[C@@H]2[C@H](NC(=O)[C@H](N)c3ccc(O)cc3)C(=O)N2[C@H]1C(=O)O
As to conditions: Shouchella clausii; NR. This is another data set of the same source.

Substrate in data set [27]: CCN1CCN(C(=O)N[C@@H](C(=O)N[C@@H]2C(=O)N3[C@@H]2SC(C)(C)[C@@H]3C(=O)O)c2ccccc2)C(=O)C1=O
As to conditions: Shouchella clausii; NR. The source holds these as a separate data set.

Substrate in data set [28]: CO/N=C(\C(=O)N[C@@H]1C(=O)N2C(C(=O)O)=C(COC(C)=O)CS[C@H]12)c1csc(N)n1
The following applies: Shouchella clausii; NR. The source holds these as a separate data set.

Substrate in data set [29]: CO/N=C(\C(=O)N[C@@H]1C(=O)N2C(C(=O)O)=C(COC(N)=O)CS[C@H]12)c1ccco1
As to conditions: Shouchella clausii; NR. This is another data set of the same source.

Substrate in data set [30]: CO/N=C(\C(=O)N[C@@H]1C(=O)N2C(C(=O)O)=C(CSc3nc(=O)c(O)nn3C)CS[C@H]12)c1csc(N)n1
The following applies: Shouchella clausii; NR. The source holds these as a separate data set.

Substrate in data set [31]: CO/N=C(\C(=O)N[C@@H]1C(=O)N2C(C(=O)[O-])=C(C[N+]3(C)CCCC3)CS[C@H]12)c1csc(N)n1
The following applies: Shouchella clausii; NR. This is another data set of the same source.

Substrate in data set [32]: CO/N=C(\C(=O)N[C@@H]1C(=O)N2C(C(=O)[O-])=C(C[n+]3cccc4c3CCC4)CS[C@H]12)c1csc(N)n1
The following applies: Shouchella clausii; NR. This is another data set of the same source.

Substrate in data set [33]: O=C(Cc1cccs1)N[C@@H]1C(=O)N2C(C(=O)[O-])=C(C[n+]3ccccc3)CS[C@H]12
As to conditions: Shouchella clausii; NR. The source holds these as a separate data set.

B1: Beta-lactamase 1 (Bacillus cereus), P00809 (protein)
chain: MILKNKRMLKIGICVGILGLSITSLEAFTGESLQVEAKEKTGQVKHKNQATHKEFSQLEKKFDARLGVYAIDTGTNQTISYRPNERFAFASTYKALAAGVLLQQNSIDSLNEVITYTKEDLVDYSPVTEKHVDTGMKLGEIAEAAVRSSDNTAGNILFNKIGGPKGYEKALRHMGDRITMSNRFETELNEAIPGDIRDTSTAKAIATNLKAFTVGNALPAEKRKILTEWMKGNATGDKLIRAGIPTDWVVGDKSGAGSYGTRNDIAVVWPPNSAPIIVLISSKDEKEAIYNDQLIAEATKVIVKGS
What is called kcat is the number of substrate molecules converted per active site and unit of time at saturation. As a reminder, the Km is the substrate concentration at which the rate is half of its maximum. For the protein B1, the kcat in data set [1] was 0.2 s⁻¹. Also, in data set [2], the Km stood at 65 µM and the kcat was 2200 s⁻¹.

B2: Beta-lactamase (Bacillus anthracis), Q93T42 (protein)
chain: MIVLKNKKMLKIGMCVGILGLSITSLVTFTGGALQVEAKEKTGQVKHKNQATHKEFSQLEKKFDARLGVYAIDTGTNQTIAYRPNERFAFASTYKALAAGVLLQQNSTKKLDEVITYTKEDLVDYSPVTEKHVDTGMTLGEIAEAAVRYSDNTAGNILFHKIGGPKGYEKALRQMGDRVTMSDRFETELNEAIPGDIRDTSTAKAIATNLKAFTAGNALPNHKRNILTKWMKGNATGDKLIRAGVPTNWVVADKSGAGSYGTRNDIAIVWPPNRAPIIIAILSSKDEKGATYDNQLIAEAAEVIVNAFR
The kcat/Km is the second-order rate constant that governs catalysis at low substrate concentration. For the protein B2, the turnover number (kcat) in data set [3], in data set [4] and in [5] was below 0.2 s⁻¹ each time. Also, in data set [6], the kcat/Km was found to be 1.1e+06 M⁻¹ s⁻¹.

B3: Beta-lactamase (Bacillus clausii), A8RR46 (protein)
chain: MKRSFFMLKTKITSSILVGACLLIGCSNGNEQPVSNEPEPEESVETGEAVFKALEEEYAARLGVFALDTGTGQTVSYRSDERFTYASAHKPLAVAVLLQQKSIEELEQLITYSADDLVNYNPITENHVETGMTLRELSDASIRYSDNTAANFIFDEIGGPEGFKEGLRAIGDTVTEPERIEPELNHVEPGEIQDTSTPEALAKSLQEFALGEALPADKQELLIDWLIGNTTGDALIRAGVPEGWEVGDKTGAGSYGTRNDIAILWPPEKEPIILAVLSSKDEKDAEYDDELIAKATEEVINLLAQTE
As for B3, the Michaelis constant (Km) is 15 µM in data set [7]; 1000 µM in [8]; 12 µM in data set [9]; 6 µM in [10]; 22 µM in data set [11]; 21 µM in [12]. Also, the Km in data set [13] was 790 µM; in data set [14], 105 µM; in data set [15], 950 µM; in data set [16] it was above 1000 µM; in data set [17], 136 µM; in data set [19], below 0.01 µM. Besides, in [21], the Km is 45 µM. Further, the kcat is 22 s⁻¹ in data set [7]; above 3.3 s⁻¹ in data set [8]; 97 s⁻¹ in data set [9]; 5 s⁻¹ in data set [10]; 85 s⁻¹ in [11]; 38 s⁻¹ in data set [12]. Further, the kcat in data set [13] was 22 s⁻¹; in [14], 15 s⁻¹; in [15], 30 s⁻¹; in [16], above 40 s⁻¹; in data set [17], 95 s⁻¹; in data set [18], below 0.01 s⁻¹. Also, the kcat in [19] is below 0.01 s⁻¹; in data set [20] it was below 0.3 s⁻¹; in data set [21] it was 115 s⁻¹. Further, the catalytic efficiency (kcat/Km) in data set [22] is 1.5e+06 M⁻¹ s⁻¹; in data set [23] it was below 3000 M⁻¹ s⁻¹; in data set [24], 8e+06 M⁻¹ s⁻¹; in data set [25], 1e+06 M⁻¹ s⁻¹; in data set [26], 4e+06 M⁻¹ s⁻¹; in data set [27], 2e+06 M⁻¹ s⁻¹. The kcat/Km in data set [28] was 30000 M⁻¹ s⁻¹; in data set [29] it was 100000 M⁻¹ s⁻¹; in [30] it was 30000 M⁻¹ s⁻¹; in data set [31] it was below 40000 M⁻¹ s⁻¹; in data set [32], 1e+06 M⁻¹ s⁻¹; in data set [33] it was 2.5e+06 M⁻¹ s⁻¹.
